Results published in paper doi:10.1101/569459 (bioRxiv, 2019).
Substitutions are numbered along the chain they refer to. Each block holds one binder with its values, some of them ahead of it.

Target: MBP::PP1β (UniProt P62140 1-327)
Test: pull-down

Chain of MBP::PP1β (P62140 whole entry): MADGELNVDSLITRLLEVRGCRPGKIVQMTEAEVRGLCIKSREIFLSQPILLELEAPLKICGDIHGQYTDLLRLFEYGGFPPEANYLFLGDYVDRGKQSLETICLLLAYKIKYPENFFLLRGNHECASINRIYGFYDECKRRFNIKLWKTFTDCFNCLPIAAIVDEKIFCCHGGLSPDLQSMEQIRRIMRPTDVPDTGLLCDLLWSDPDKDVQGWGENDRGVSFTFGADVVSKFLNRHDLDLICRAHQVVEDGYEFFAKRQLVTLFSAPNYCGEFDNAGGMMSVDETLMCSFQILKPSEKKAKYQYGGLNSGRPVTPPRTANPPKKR

- binding result: binds
B1: GST::MKLP1_(620-858) (wild type) (domain or fragment, UniProt Q02241-2 620-856, looked up)
chain: ETTMKWEKECERRVAAKQLEMQNKLWVKDEKLKQLKAIVTEPKTEKPERPSRERDREKVTQRSVSPSPVPLLFQPDQNAPPIRLRHRRSRSAGDRWVDHKPASNMQTETVMQPHVPHAITVSVANEKALAKCEKYMLTHQELASDGEIETKLIKGDIYKTRGGGQSVQFTDIETLKQESPNGSRKRRSSTVAPAQPDGAESEWTDVETRCSVAVEMRAGSQLGPGYQHHAQPKRKKP

- binding result: binds
B2: GST::MKLP1_(620-858) AQA mutant (domain or fragment, UniProt Q02241-2 620-856, looked up)
chain: B1 chain with V167A, F169A
